Measurements reported in the supplement of paper PMC11246515.
± gives the standard deviation of the averaged measurements.

Test: total protein half-life in vivo (active degradation + dilution); higher = more stable protein
[1] = E. coli NCM3722 delta-clpP delta-lon delta-hslV, growth: N-lim chemostat, doubling time 6 h
[2] = E. coli NCM3722 delta-hslV, growth: N-lim chemostat, doubling time 6 h
[3] = E. coli NCM3722 delta-lon, growth: N-lim chemostat, doubling time 6 h
[4] = E. coli NCM3722 delta-smpB, growth: N-lim chemostat, doubling time 6 h
[5] = wild type E. coli NCM3722, growth: C-lim chemostat, doubling time 3 h
[6] = wild type E. coli NCM3722, growth: C-lim chemostat, doubling time 6 h
[7] = wild type E. coli NCM3722, growth: C-lim chemostat, doubling time 12 h
[8] = wild type E. coli NCM3722, growth: N-lim chemostat, doubling time 6 h
[9] = wild type E. coli NCM3722, growth: N-lim chemostat, doubling time 12 h
[10] = wild type E. coli NCM3722, growth: P-lim chemostat, doubling time 6 h
[11] = wild type E. coli NCM3722, growth: P-lim chemostat, doubling time 12 h
[12] = E. coli NCM3722 delta-clpP, growth: N-lim chemostat, doubling time 6 h

MSQFFYIHPDNPQQRLINQAVEIVRKGGVIVYPTDSGYALGCKIEDKNAMERICRIRQLPDGHNFTLMCRDLSELSTYSFVDNVAFRLMKNNTPGNYTFILKGTKEVPRRLLQEKRKTIGMRVPSNPIAQALLEALGEPMLSTSLMLPGSEFTESDPEEIKDRLEKQVDLIIHGGYLGQKPTTVIDLTDDTPVVVREGVGDVKPFL [P0AFR4]
total protein half-life in vivo [1]: 5.38 ± 0.1 h | total protein half-life in vivo [2]: 6.202 ± 0.062 h | total protein half-life in vivo [3]: 6.96 ± 1.2 h | total protein half-life in vivo [4]: 6.51 ± 0.8 h | total protein half-life in vivo [5]: 3.1 ± 0.11 h | total protein half-life in vivo [6]: 6.18 ± 1.4 h | total protein half-life in vivo [7]: 12.2 ± 1.1 h | total protein half-life in vivo [8]: 5.38 ± 0.017 h | total protein half-life in vivo [9]: 14.4 ± 1.2 h | total protein half-life in vivo [10]: 4.64 ± 0.17 h | total protein half-life in vivo [11]: 12.9 ± 1.6 h

MTEMAKGSVTHQRLIALLSQEGADFRVVTHEAVGKCEAVSEIRGTALGQGAKALVCKVKGNGVNQHVLAILAADQQADLSQLASHIGGLRASLASPAEVDELTGCVFGAIPPFSFHPKLKLVADPLLFERFDEIAFNAGMLDKSVILKTADYLRIAQPELVNFRRTA
total protein half-life in vivo [1]: 5.051 ± 0.048 h | total protein half-life in vivo [12]: 7.68 h | total protein half-life in vivo [2]: 3.84 ± 0.28 h | total protein half-life in vivo [3]: 5.17 ± 0.12 h | total protein half-life in vivo [4]: 3.6 ± 0.12 h | total protein half-life in vivo [5]: 3.19 ± 0.52 h | total protein half-life in vivo [6]: 4.895 ± 0.03 h | total protein half-life in vivo [7]: 8.13 ± 0.88 h | total protein half-life in vivo [8]: 3.564 ± 0.0078 h | total protein half-life in vivo [9]: 5.88 ± 0.3 h | total protein half-life in vivo [10]: 4.71 ± 0.58 h | total protein half-life in vivo [11]: 8.83 ± 0.85 h

MSQVQSGILPEHCRAAIWIEANVKGEVDALRAASKTFADKLATFEAKFPDAHLGAVVAFGNNTWRALSGGVGAEELKDFPGYGKGLAPTTQFDVLIHILSLRHDVNFSVAQAAMEAFGDCIEVKEEIHGFRWVEERDLSGFVDGTENPAGEETRREVAVIKDGVDAGGSYVFVQRWEHNLKQLNRMSVHDQEMVIGRTKEANEEIDGDERPETSHLTRVDLKEDGKGLKIVRQSLPYGTASGTHGLYFCAYCARLHNIEQQLLSMFGDTDGKRDAMLRFTKPVTGGYYFAPSLDKLMAL
total protein half-life in vivo [1]: 3.34 ± 0.63 h | total protein half-life in vivo [12]: 3.25 ± 0.84 h | total protein half-life in vivo [2]: 3.36 ± 0.15 h | total protein half-life in vivo [3]: 3.73 ± 0.79 h | total protein half-life in vivo [4]: 3.14 ± 0.27 h | total protein half-life in vivo [5]: 2.96 ± 0.12 h | total protein half-life in vivo [7]: 8.52 ± 2.9 h | total protein half-life in vivo [8]: 3.18 ± 0.17 h | total protein half-life in vivo [9]: 4.17 ± 0.094 h | total protein half-life in vivo [10]: 5.09 ± 0.12 h | total protein half-life in vivo [11]: 9.66 ± 0.84 h

MKIYLVGGAVRDALLGLPVKDRDWVVVGSTPQEMLDAGYQQVGRDFPVFLHPQTHEEYALARTERKSGSGYTGFTCYAAPDVTLEDDLKRRDLTINALAQDDNGEIIDPYNGLGDLQNRLLRHVSPAFGEDPLRVLRVARFAARYAHLGFRIADETLALMREMTHAGELEHLTPERVWKETESALTTRNPQVFFQVLRDCGALRVLFPEIDALFGVPAPAKWHPEIDTGIHTLMTLSMAAMLSPQVDVRFATLCHDLGKGLTPPELWPRHHGHGPAGVKLVEQLCQRLRVPNEIRDLARLVAEFHDLIHTFPMLNPKTIVKLFDSIDAWRKPQRVEQLALTSEADVRGRTGFESADYPQGRWLREAWEVAQSVPTKAVVEAGFKGVEIREELTRRRIAAVASWKEQRCPKPE
total protein half-life in vivo [1]: 4.23 ± 0.88 h | total protein half-life in vivo [12]: 3.75 ± 0.11 h | total protein half-life in vivo [2]: 3.29 ± 0.057 h | total protein half-life in vivo [3]: 3.79 ± 0.16 h | total protein half-life in vivo [4]: 3.37 ± 0.045 h | total protein half-life in vivo [5]: 2.96 ± 0.27 h | total protein half-life in vivo [6]: 5.06 ± 0.79 h | total protein half-life in vivo [7]: 8.37 ± 0.69 h | total protein half-life in vivo [8]: 3.48 ± 0.28 h | total protein half-life in vivo [9]: 5.55 ± 0.2 h | total protein half-life in vivo [10]: 5.114 ± 0.016 h | total protein half-life in vivo [11]: 9.86 ± 0.35 h

MNYELLTTENAPVKMWTKGVPVEADARQQLINTAKMPFIFKHIAVMPDVHLGKGSTIGSVIPTKGAIIPAAVGVDIGCGMNALRTALTAEDLPENLAELRQAIETAVPHGRTTGRCKRDKGAWENPPVNVDAKWAELEAGYQWLTQKYPRFLNTNNYKHLGTLGTGNHFIEICLDESDQVWIMLHSGSRGIGNAIGTYFIDLAQKEMQETLETLPSRDLAYFMEGTEYFDDYLKAVAWAQLFASLNRDAMMENVVTALQSITQKTVRQPQTLAMEEINCHHNYVQKEQHFGEEIYVTRKGAVSARAGQYGIIPGSMGAKSFIVRGLGNEESFCSCSHGAGRVMSRTKAKKLFSVEDQIRATAHVECRKDAEVIDEIPMAYKDIDAVMAAQSDLVEVIYTLRQVVCVKG
total protein half-life in vivo [1]: 5.37 ± 0.74 h | total protein half-life in vivo [2]: 1.46 ± 0.41 h | total protein half-life in vivo [3]: 2.04 ± 0.29 h | total protein half-life in vivo [4]: 1.46 ± 0.066 h | total protein half-life in vivo [5]: 1.6 ± 0.19 h | total protein half-life in vivo [6]: 2.78 ± 0.54 h | total protein half-life in vivo [7]: 3.19 ± 0.052 h | total protein half-life in vivo [8]: 1.73 h | total protein half-life in vivo [9]: 1.67 ± 0.49 h | total protein half-life in vivo [10]: 1.98 ± 0.61 h | total protein half-life in vivo [11]: 3.92 ± 0.64 h

MNTISSLETTDLPAAYHIEQRAHAFPWSEKTFASNQGERYLNFQLTQNGKMAAFAITQVVLDEATLFNIAVDPDYQRQGLGRALLEHLIDELEKRGVATLWLEVRASNAAAIALYESLGFNEATIRRNYYPTTDGREDAIIMALPISM [P0A944]
total protein half-life in vivo [1]: 5.64 h | total protein half-life in vivo [12]: 4.51 h | total protein half-life in vivo [3]: 4.5 ± 0.79 h | total protein half-life in vivo [4]: 3.85 h | total protein half-life in vivo [5]: > 4 h | total protein half-life in vivo [7]: 15.9 h | total protein half-life in vivo [8]: 3.845 ± 0.034 h | total protein half-life in vivo [9]: 6.18 h | total protein half-life in vivo [10]: 4.53 h | total protein half-life in vivo [11]: 8.18 h

MVSETKTTEAPGLRRELKARHLTMIAIGGSIGTGLFVASGATISQAGPGGALLSYMLIGLMVYFLMTSLGELAAYMPVSGSFATYGQNYVEEGFGFALGWNYWYNWAVTIAVDLVAAQLVMSWWFPDTPGWIWSALFLGVIFLLNYISVRGFGEAEYWFSLIKVTTVIVFIIVGVLMIIGIFKGAQPAGWSNWTIGEAPFAGGFAAMIGVAMIVGFSFQGTELIGIAAGESEDPAKNIPRAVRQVFWRILLFYVFAILIISLIIPYTDPSLLRNDVKDISVSPFTLVFQHAGLLSAAAVMNAVILTAVLSAGNSGMYASTRMLYTLACDGKAPRIFAKLSRGGVPRNALYATTVIAGLCFLTSMFGNQTVYLWLLNTSGMTGFIAWLGIAISHYRFRRGYVLQGHDINDLPYRSGFFPLGPIFAFILCLIITLGQNYEAFLKDTIDWGGVAATYIGIPLFLIIWFGYKLIKGTHFVRYSEMKFPQNDKK
total protein half-life in vivo [12]: > 8 h | total protein half-life in vivo [3]: 5.36 h | total protein half-life in vivo [4]: 6.44 h | total protein half-life in vivo [6]: > 8 h | total protein half-life in vivo [7]: > 16 h | total protein half-life in vivo [8]: 6.92 h | total protein half-life in vivo [10]: 6.22 h | total protein half-life in vivo [11]: 8.87 h

MKEKPAVEVRLDKWLWAARFYKTRALAREMIEGGKVHYNGQRSKPSKIVELNATLTLRQGNDERTVIVKAITEQRRPASEAALLYEETAESVEKREKMALARKLNALTMPHPDRRPDKKERRDLLRFKHGDSE [P0ACG8]
total protein half-life in vivo [1]: 6.23 ± 0.21 h | total protein half-life in vivo [3]: 5.39 h | total protein half-life in vivo [4]: 3.67 h | total protein half-life in vivo [5]: 2.91 h | total protein half-life in vivo [6]: 5.7 ± 1.5 h | total protein half-life in vivo [7]: 6.7 h | total protein half-life in vivo [8]: 4.16 h | total protein half-life in vivo [9]: 6.59 h | total protein half-life in vivo [11]: 7.24 h
